Experimental data as given in patent US20230147657A1 (INSERM INSTITUT NATIONAL DE LA SANT ET DE LA RECHERCHE M …, published 2023).

T1: human CD45RC (human, UniProt P08575 26-1306)
T1 construct: Native protein on human blood leukocytes / PBMC / T cells of healthy volunteers; also called hCD45RC
T1 sequence: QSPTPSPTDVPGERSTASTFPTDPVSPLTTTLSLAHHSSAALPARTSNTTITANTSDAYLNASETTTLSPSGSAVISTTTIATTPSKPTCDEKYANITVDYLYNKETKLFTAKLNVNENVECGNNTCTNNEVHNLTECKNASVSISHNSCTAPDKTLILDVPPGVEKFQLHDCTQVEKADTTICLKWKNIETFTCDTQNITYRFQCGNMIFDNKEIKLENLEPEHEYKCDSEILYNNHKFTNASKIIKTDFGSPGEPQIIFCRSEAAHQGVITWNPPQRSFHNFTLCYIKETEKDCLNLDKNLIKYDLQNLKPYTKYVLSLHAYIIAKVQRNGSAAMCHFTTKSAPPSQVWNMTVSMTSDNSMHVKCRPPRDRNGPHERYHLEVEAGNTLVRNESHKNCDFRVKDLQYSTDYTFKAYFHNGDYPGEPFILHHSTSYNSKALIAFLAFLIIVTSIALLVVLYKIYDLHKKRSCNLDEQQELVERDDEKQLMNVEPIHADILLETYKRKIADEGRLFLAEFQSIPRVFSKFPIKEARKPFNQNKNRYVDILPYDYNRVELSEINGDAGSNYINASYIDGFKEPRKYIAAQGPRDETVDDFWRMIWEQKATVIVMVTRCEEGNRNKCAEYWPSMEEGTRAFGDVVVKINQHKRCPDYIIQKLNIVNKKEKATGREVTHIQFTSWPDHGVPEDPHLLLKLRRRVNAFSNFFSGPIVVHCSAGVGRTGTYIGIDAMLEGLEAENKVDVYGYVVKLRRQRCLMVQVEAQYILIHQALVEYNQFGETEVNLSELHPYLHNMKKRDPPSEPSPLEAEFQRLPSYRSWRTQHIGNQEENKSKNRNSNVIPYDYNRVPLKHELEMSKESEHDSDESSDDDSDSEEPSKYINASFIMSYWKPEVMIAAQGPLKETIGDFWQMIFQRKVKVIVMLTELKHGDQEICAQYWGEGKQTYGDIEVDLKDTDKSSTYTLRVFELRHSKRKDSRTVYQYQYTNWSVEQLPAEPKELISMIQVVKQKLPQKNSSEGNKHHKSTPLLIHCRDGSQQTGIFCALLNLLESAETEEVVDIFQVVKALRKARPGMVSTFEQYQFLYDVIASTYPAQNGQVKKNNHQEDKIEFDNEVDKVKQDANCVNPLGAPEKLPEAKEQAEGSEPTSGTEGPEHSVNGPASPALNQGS

B1: Anti-45RC Variant A (antibody, human IgG1, kappa, V domains shown)
VH: QVQLVQSGAEVKKPGASVKVSCKASGYTFTNYYIGWVRQAPGQGLEWIGDIFPGGDYANSNEKFKGRVTLTADTSISTAYMELSRLRSDDTVVYYCVRRNFDYWGQGTLVTVSS
VL: DIQLTQSPSFLSASVGDRVTITCSASSSVSYMHWFQQKPGKAPKLWIYNTSNLPSGVPSRFSGSGSGTEYTLTISSLQPEDFATYYCQQRSSYPLTFGGGTKVEIKR
notes: also called humanized ABIS-45RC variant A
B2: Anti-45RC Variant D (antibody, human IgG1, kappa, V domains shown)
VH: EVQLVQSGAEVKKPGESLKISCKASGYTFTNYYIGWVRQMPGKGLEWIGDIFPGGDYANSNEKFKGQVTLSADKSISTAYLQLSSLKASDTAMYYCVRRNFDYWGQGTLVTVSS
VL: B1 VL
notes: also called humanized ABIS-45RC variant D
B3: Anti-45RC Variant C (antibody, human IgG1, kappa, V domains shown)
VH: B1 VH
VL: EIVLTQSPATLSLSPGERATLSCSASSSVSYMHWFQQKPGQAPRLWIYNTSNLPSGIPARFSGSGSGTDYTLTISSLEPEDFAVYYCQQRSSYPLTFGGGTKVEIKR
notes: also called humanized ABIS-45RC variant C
B4: Anti-45RC Variant B (antibody, human IgG1, kappa, V domains shown)
VH: B1 VH
VL: EIVLTQSPDFQSVTPKEKVTITCSASSSVSYMHWFQQKPDQSPKLWIYNTSNLPSGVPSRFSGSGSGTDYTLTINSLEAEDAATYYCQQRSSYPLTFGGGTKVEIKR
notes: also called humanized ABIS-45RC variant B
B5: Anti-45RC Variant E (antibody, human IgG1, kappa, V domains shown)
VH: B2 VH
VL: B4 VL
notes: also called humanized ABIS-45RC variant E
B6: Anti-45RC Variant F (antibody, human IgG1, kappa, V domains shown)
VH: B2 VH
VL: B3 VL
notes: also called humanized ABIS-45RC variant F
B7: Anti-45RC Variant G (antibody, human IgG1, kappa, V domains shown)
VH: QVQLVESGGGLVKPGGSLRLSCAASGYTFTNYYIGWIRQAPGKGLEWIGDIFPGGDYANSNEKVKGRFTLSADTAKNSAYLQMNSLRAEDTAVYYCVRRNFDYWGQGTLVTVSS
VL: B4 VL
notes: also called humanized ABIS-45RC variant G
B8: Anti-45RC Variant H (antibody, human IgG1, kappa, V domains shown)
VH: B7 VH
VL: B3 VL
notes: also called humanized ABIS-45RC variant H
B9: Anti-45RC Variant I (antibody, human IgG1, kappa, V domains shown)
VH: B7 VH
VL: B1 VL
notes: also called humanized ABIS-45RC variant I

The binders below were run against T1, human CD45RC (assay: flow cytometry on T cells of human PBMC; biotin anti-human IgG + streptavidin PerCP-Cy5.5).

Row | Binder | % of T cells in the CD45RC gate at 1 µg/mL [%] | % of T cells in the CD45RC gate at 2 µg/mL [%]
1 | B1 | 58.2 | 60.2
2 | B2 | 57.2 | 59.5
3 | B3 | 63.3 | 63.7
4 | B4 | 43.9 | 32.7

Target: T1, human CD45RC
Test: as above
Remark: another data set of the same source

Row | Binder | % of T cells in the CD45RC gate at 1 µg/mL [%] | % of T cells in the CD45RC gate at 2 µg/mL [%]
5 | B5 | 53.7 | 48.9
6 | B6 | 58.8 | 57.2
7 | B7 | 55.7 | 54.2

Target: T1, human CD45RC
Test: as above
Remark: another data set of the same source

Row | Binder | % of T cells in the CD45RC gate at 1 µg/mL [%] | % of T cells in the CD45RC gate at 2 µg/mL [%]
8 | B8 | 29.5 | 13.2
9 | B9 | 49.7 | 48.9
